Assay results: patent US20220289850 (published 2022)

Target: T1, human integrin avb8 (human)
T1 chain 1: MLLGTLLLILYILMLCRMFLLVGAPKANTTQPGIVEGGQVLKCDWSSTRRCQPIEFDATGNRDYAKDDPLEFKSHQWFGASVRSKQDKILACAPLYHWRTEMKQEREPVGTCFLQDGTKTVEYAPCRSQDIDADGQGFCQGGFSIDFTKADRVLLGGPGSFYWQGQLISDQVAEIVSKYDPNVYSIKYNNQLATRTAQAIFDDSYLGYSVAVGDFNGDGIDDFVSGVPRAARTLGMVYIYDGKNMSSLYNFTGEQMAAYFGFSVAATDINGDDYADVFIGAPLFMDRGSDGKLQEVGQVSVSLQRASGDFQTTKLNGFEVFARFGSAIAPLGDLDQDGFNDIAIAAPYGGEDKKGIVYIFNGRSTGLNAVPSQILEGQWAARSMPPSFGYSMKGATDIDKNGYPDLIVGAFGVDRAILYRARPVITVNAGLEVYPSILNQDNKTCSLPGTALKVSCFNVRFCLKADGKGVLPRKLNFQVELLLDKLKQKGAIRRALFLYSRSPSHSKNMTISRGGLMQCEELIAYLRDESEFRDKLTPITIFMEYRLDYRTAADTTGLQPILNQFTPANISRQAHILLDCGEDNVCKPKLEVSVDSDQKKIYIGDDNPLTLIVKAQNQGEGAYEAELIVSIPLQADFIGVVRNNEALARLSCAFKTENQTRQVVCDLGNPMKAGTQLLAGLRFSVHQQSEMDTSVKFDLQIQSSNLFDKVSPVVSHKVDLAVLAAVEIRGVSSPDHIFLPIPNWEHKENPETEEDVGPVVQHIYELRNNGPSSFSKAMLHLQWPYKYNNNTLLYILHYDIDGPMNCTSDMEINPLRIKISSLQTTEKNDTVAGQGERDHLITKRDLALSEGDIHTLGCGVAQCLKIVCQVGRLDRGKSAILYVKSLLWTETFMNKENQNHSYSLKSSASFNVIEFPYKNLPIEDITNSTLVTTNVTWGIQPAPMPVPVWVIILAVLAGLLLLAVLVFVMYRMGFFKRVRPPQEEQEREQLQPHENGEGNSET
T1 chain 2: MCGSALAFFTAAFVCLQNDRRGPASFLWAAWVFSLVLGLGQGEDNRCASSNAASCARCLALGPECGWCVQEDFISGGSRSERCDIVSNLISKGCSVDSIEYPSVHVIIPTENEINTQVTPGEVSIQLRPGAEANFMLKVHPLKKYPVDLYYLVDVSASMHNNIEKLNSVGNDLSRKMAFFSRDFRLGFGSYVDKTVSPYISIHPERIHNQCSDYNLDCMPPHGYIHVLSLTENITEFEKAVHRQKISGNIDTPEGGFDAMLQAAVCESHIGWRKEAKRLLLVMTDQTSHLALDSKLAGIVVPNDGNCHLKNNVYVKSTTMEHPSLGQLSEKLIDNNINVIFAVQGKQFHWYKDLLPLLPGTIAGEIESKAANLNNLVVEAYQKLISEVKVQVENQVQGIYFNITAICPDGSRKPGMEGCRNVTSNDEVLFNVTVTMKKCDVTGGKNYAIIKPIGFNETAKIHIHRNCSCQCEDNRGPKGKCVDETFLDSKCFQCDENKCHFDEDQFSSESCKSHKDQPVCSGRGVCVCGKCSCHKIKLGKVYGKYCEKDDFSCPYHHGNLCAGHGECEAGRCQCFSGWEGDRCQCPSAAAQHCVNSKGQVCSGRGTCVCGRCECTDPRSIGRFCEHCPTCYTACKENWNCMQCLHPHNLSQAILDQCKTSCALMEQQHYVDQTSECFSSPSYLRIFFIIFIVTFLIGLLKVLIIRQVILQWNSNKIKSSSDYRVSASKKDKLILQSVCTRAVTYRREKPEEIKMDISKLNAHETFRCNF
Assay: SPR

Kd: < 0.1 nM
B1: ADWA11 2.4 Fab (antibody, V domains shown)
VH: EVQLVESGGGLVQPGGSLRLSCAASGFNIKDYYMNWVRQAPGKGLEWVGWIDPDQGNTIYEPKFQGRFTISADTSKNSAYLQMNSLRAEDTAVYYCARRLLMDYWGQGTLVTVSS
VL: DIQMTQSPSSLSASVGDRVTITCRSTKSLSHFNGNTYLFWYQQKPGKAPKRLIYYMSSLASGVPSRFSGSGSGTDFTLTISSLQPEDFATYYCQQSLEYPFTFGGGTKVEIK
